The target in series [1] is T1, c-Myc;Max isoform (human;human) (UniProt P01106+P61244). Kind of series: TIRF-PBM. The settings on record: 5' amino on one strand, coupled to hydrogel.
The target in series [2] is T1, c-Myc;Max isoform (human;human). Kind of series: TIRF-PBM. To be noted: 5' amino on one strand, coupled to hydrogel. The source holds these as a separate data set.
For series [3], the system named is U-STAT1 (unphosphorylated STAT1) (human). The series is described as follows: EMSA.
In series [4] the test system is P-STAT1 (phosphorylated STAT1) (human). Kind of series: TIRF-PBM. To be noted: 5' amino on one strand, coupled to hydrogel.

pKd: −log10 of the molar value.

The term pKd denotes the negative decadic logarithm of the Kd, by convention in mol/L. Higher therefore signals a small Kd.

T1 sequence (P01106 16-454, chain 1 of 2): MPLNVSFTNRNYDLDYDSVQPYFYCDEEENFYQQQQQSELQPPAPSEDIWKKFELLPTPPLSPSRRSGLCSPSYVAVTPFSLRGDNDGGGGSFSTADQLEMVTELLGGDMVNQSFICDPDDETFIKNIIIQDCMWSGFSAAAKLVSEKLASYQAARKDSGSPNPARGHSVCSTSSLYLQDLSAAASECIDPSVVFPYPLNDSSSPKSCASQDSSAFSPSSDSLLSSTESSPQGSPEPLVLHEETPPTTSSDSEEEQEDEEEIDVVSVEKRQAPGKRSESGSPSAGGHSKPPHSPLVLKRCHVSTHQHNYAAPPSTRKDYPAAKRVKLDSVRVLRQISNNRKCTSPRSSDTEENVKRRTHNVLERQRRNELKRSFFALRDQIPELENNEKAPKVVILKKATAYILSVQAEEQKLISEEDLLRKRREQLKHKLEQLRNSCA
T1 sequence (P61244 2-160, chain 2 of 2): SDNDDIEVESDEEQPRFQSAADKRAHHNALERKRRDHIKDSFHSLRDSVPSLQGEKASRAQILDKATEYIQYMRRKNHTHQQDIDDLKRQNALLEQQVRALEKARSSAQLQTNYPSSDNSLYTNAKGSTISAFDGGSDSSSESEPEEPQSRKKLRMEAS

Take “Myc/Max cognate E-box DNA (probe number not given)”: the negative-log Kd (pKd) in series [1] is 9.05; in series [2], 8.44. As to GAS cognate DNA (EMSA), the binding signal (fold lower affinity than P-STAT1) in series [3] is more than 200. In series [4], sequence 70 (optimal GAS, spacer CCG) had a pKd of 8.47.

These data come from paper PMC3553987.
